Molecular target: insulin (human, UniProt P01308;P01308 25-54;90-110)
Experiment: bead-based flow cytometry

insulin, sequence (P01308 25-54, chain 1 of 2): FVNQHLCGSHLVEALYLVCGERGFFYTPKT
insulin, sequence (P01308 90-110, chain 2 of 2): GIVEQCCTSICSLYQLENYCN

GGTGGTGGGGGGGGTTGGTAGGGTGTCTTC (ssDNA) [IGA3 bt]
Kd: 12.7 ± 1.1 µM

Source: article doi:10.1101/2020.04.25.060004
